This note sets out measurements from patent US20240115704A1, “TREATMENT OF CANCER WITH NK CELLS AND A CD38-TARGETED ANTIBODY” (Artiva Biotherapeutics, Inc., priority 2021, published 2024).

Where only a bound is given, the exact number is not on record here.

The test has as its target CD38 (human) (UniProt P28907). Briefly: cell-based or functional assay.

For the substance daratumumab (antibody), the ADCC (percent specific lysis) of MM.1R multiple myeloma cells by AB-101, 0.31:1 E:T, 2 µg/mL daratumumab, 4 h was 4.88%; the ADCC (percent specific lysis) of MM.1R multiple myeloma cells by AB-101, 10:1 E:T, 2 µg/mL daratumumab, 4 h was 42.4%; the ADCC (percent specific lysis) of MM.1S multiple myeloma cells by AB-101, 0.31:1 E:T, 2 µg/mL daratumumab, 4 h was 2.34%; the ADCC (percent specific lysis) of MM.1S multiple myeloma cells by AB-101, 10:1 E:T, 2 µg/mL daratumumab, 4 h was 19.8%. Also, the ADCC (percent specific lysis) of NCI-H929 multiple myeloma cells by AB-101, 0.31:1 E:T, 2 µg/mL daratumumab, 4 h worked out at 3.38%; the ADCC (percent specific lysis) of NCI-H929 multiple myeloma cells by AB-101, 10:1 E:T, 2 µg/mL daratumumab, 4 h amounted to 46.4%; the ADCC (percent specific lysis) of RPMI 8226 multiple myeloma cells by AB-101, 0.31:1 E:T, 2 µg/mL daratumumab, 4 h was found to be 8.75%; the ADCC (percent specific lysis) of RPMI 8226 multiple myeloma cells by AB-101, 10:1 E:T, 2 µg/mL daratumumab, 4 h was found to be 58.2%. Also, the complement-dependent cytotoxicity of Daudi cells with human complement serum: daratumumab concentration at which lysis was saturated is less than 0.41 µg/mL and the daratumumab-mediated ADCC (percent specific lysis) of Daudi cells by AB-101, 10:1 E:T, 2 µg/mL daratumumab, 4 h worked out at 79.5%.
